According to publication doi:10.1101/2022.08.26.505376 (bioRxiv, 2022):
Residue numbers refer to the chain shown, from its start. Like-named read-outs stand apart in the source and are kept apart here.

B1: KaiA (natural protein)
chain: MLSQIAICIWVESTAILQDCQRALSADRYQLQVCESGEMLLEYAQTHRDQIDCLILVAANPSFRAVVQQLCFEGVVVPAIVVGDRDSEDPDEPAKEQLYHSAELHLGIHQLEQLPYQVDAALAEFLRLAPVETMADHIMLMGANHDPELSSQQRDLAQRLQERLGYLGVYYKRDPDRFLRNLPAYESQKLHQAMQTSYREIVLSYFSPNSNLNQSIDNFVNMAFFADVPVTKVVEIHMELMDEFAKKLRVEGRSEDILLDYRLTLIDVIAHLCEMYRRSIPRET
B2: KaiC (natural protein)
chain: MTSAEMTSPNNNSEHQAIAKMRTMIEGFDDISHGGLPIGRSTLVSGTSGTGKTLFSIQFLYNGIIEFDEPGVFVTFEETPQDIIKNARSFGWDLAKLVDEGKLFILDASPDPEGQEVVGGFDLSALIERINYAIQKYRARRVSIDSVTSVFQQYDASSVVRRELFRLVARLKQIGATTVMTTERIEEYGPIARYGVEEFVSDNVVILRNVLEGERRRRTLEILKLRGTSHMKGEYPFTITDHGINIFPLGAMRLTQRSSNVRVSSGVVRLDEMCGGGFFKDSIILATGATGTGKTLLVSRFVENACANKERAILFAYEESRAQLLRNAYSWGMDFEEMERQNLLKIVCAYPESAGLEDHLQIIKSEINDFKPARIAIDSLSALARGVSNNAFRQFVIGVTGYAKQEEITGLFTNTSDQFMGAHSITDSHISTITDTIILLQYVEIRGEMSRAINVFKMRGSWHDKAIREFMISDKGPDIKDSFRNFERIISGSPTRITVDEKSELSRIVRGVQEKGPES
B3: KaiCDT (phosphorylation mimic KaiC) (natural protein)
chain: B2 chain with S431D
B4: KaiCAA (dephosphorylation mimic KaiC) (natural protein)
chain: B2 chain with S431A, T432A
B5: KaiB (natural protein)
chain: MSPRKTYILKLYVAGNTPNSVRALKTLKNILEVEFQGVYALKVIDVLKNPQLAEEDKILATPTLAKVLPLPVRRIIGDLSDREKVLIGLDLLYGELQDSDDF

How the values were obtained:
Test in all cases: AUC
AUC [1] = target: the molecule itself
AUC [2] = target: the molecule itself; remark: listed apart in the source
KaiA = target: B1
[3] = target: B3
KaiC = target: B2

Binder | stoichiometry N (AUC [1]) | stoichiometry N (AUC [2]) | other results
B1 | 2 | – | –
B2 | – | 6 | –
B3 | – | – | binding result (AUC [1]): binds
B4 | – | 6 | binding result (KaiA): binds
B5 | 4 | – | binding result [3]: binds; binding result (KaiC): binds
